Data: the Immune Epitope Database (IEDB)

Columns and labels:
Assay in all cases: IEDB peptide-MHC binding, purified MHC/competitive/radioactivity; filed as Kd, often an IC50 or EC50 that approximates it; ≥ and ≤ were set here for values at or beyond the usual limits of such assays
[1] = molecular target: HLA-A*03:01
[2] = molecular target: HLA-A*11:01
[3] = molecular target: HLA-A*31:01
[4] = molecular target: HLA-A*33:01
[5] = molecular target: HLA-A*68:01
[6] = molecular target: HLA-A*02:06; details: source organism: Dengue virus 1 Singapore/S275/1990
[7] = molecular target: HLA-A*02:03
[8] = source organism: Vaccinia virus WR
[9] = source organism: SARS coronavirus Tor2
[10] = source organism: Mammarenavirus whitewaterense
[11] = source organism: Mammarenavirus guanaritoense
[12] = source organism: Mammarenavirus juninense
[13] = source organism: Mammarenavirus machupoense
[14] = source organism: Mammarenavirus brazilense

Row | Sequence | Kd [1, 8] | Kd [2, 8] | Kd [3, 8] | Kd [4, 8] | Kd [5, 8] | also measured
1 | MATMLEYVRY | 588 nM | 21.8 nM | 1620 nM | 13500 nM | 116 nM | –
2 | DFESVTNSVY | ≥ 33300 nM | ≥ 25400 nM | 15600 nM | 14800 nM | 11800 nM | –
3 | AAISDYDYY | – | – | – | – | – | Kd [1, 9]: 698 nM; Kd [2, 9]: 1100 nM; Kd [3, 9]: 17500 nM; Kd [4, 9]: ≥ 77700 nM; Kd [5, 9]: 4810 nM
4 | ALLRALRLTK | – | – | – | – | – | Kd [1, 9]: 3.17 nM; Kd [2, 9]: 24.5 nM; Kd [3, 9]: 233 nM; Kd [4, 9]: ≥ 70000 nM; Kd [5, 9]: 1790 nM
5 | TLSPAHLINK | 2.05 nM | 1.29 nM | 168 nM | 11400 nM | 120 nM | –
6 | GIFKNNDVR | 2210 nM | 1660 nM | 11500 nM | ≥ 28400 nM | 132 nM | –
7 | VIPFDDIVR | ≥ 78000 nM | 9600 nM | 338 nM | 302 nM | 174 nM | –
8 | IFPGDKTSY | 11600 nM | 11700 nM | ≥ 56700 nM | ≥ 77700 nM | 17700 nM | –
9 | YTVEFDRDK | ≥ 78000 nM | 18900 nM | ≥ 33400 nM | ≥ 44800 nM | 1.25 nM | –
10 | VIVVPVIDR | ≥ 78000 nM | 675 nM | 9910 nM | ≥ 77700 nM | 279 nM | –
11 | SLLTNDTTWI | – | – | – | – | – | Kd [1, 10]: ≥ 70000 nM; Kd [2, 10]: ≥ 69700 nM; Kd [3, 10]: 17000 nM; Kd [4, 10]: ≥ 70000 nM; Kd [5, 10]: ≥ 70100 nM
12 | LTLKGMSYV | – | – | – | – | – | Kd [6]: 7 nM
13 | LIMFEQYFIY | 1030 nM | 134 nM | 14000 nM | 8190 nM | 1720 nM | –
14 | AVFKDSFLR | 16.2 nM | 6.49 nM | 3.03 nM | 323 nM | 0.821 nM | –
15 | NFGTIILNK | 1350 nM | 1090 nM | 1270 nM | 1540 nM | 508 nM | –
16 | NSFIISTLNK | 416 nM | 0.447 nM | 648 nM | 4460 nM | 19.2 nM | –
17 | SLCFLLTQK | – | – | – | – | – | Kd [1, 9]: 25.6 nM; Kd [2, 9]: 22.7 nM; Kd [3, 9]: 231 nM; Kd [4, 9]: 5560 nM; Kd [5, 9]: 1200 nM

Row | Sequence | Kd [1, 8] | Kd [2, 8] | Kd [3, 8] | Kd [4, 8] | Kd [5, 8] | also measured
18 | CCNWLDRCRH | – | – | – | – | – | Kd [1, 11]: ≥ 70000 nM; Kd [2, 11]: ≥ 69700 nM; Kd [3, 11]: 1350 nM; Kd [4, 11]: 15900 nM; Kd [5, 11]: ≥ 70100 nM
19 | ILAGPMPVTA | – | – | – | – | – | Kd ([7]; source organism: Dengue virus 3 Martinique/1243/1999): 125 nM
20 | NAISSRVDRY | ≥ 42600 nM | 18000 nM | 11000 nM | ≥ 70000 nM | 10700 nM | –
21 | LLNSMMNRDK | 39.2 nM | 1780 nM | 690 nM | ≥ 27500 nM | ≥ 70200 nM | –
22 | TILLSDKGK | 1540 nM | 81.2 nM | 7390 nM | ≥ 44300 nM | 198 nM | –
23 | FLDKSIHLTK | 117 nM | 177 nM | 104 nM | 530 nM | 235 nM | –
24 | DVKVLAARLK | 1160 nM | 2350 nM | 3000 nM | 5070 nM | 592 nM | –
25 | DLIVTFRERY | 35.1 nM | 52.6 nM | 137 nM | 1240 nM | 23.5 nM | –
26 | PISELSRLR | ≥ 78000 nM | 5400 nM | 484 nM | 919 nM | 679 nM | –
27 | PLVAGGLLTV | – | – | – | – | – | Kd ([7]; source organism: Dengue virus 2 Jamaica/1409/1983): 35.1 nM
28 | IAQSKGLYR | – | – | – | – | – | Kd [1, 9]: 3880 nM; Kd [2, 9]: 224 nM; Kd [3, 9]: 98 nM; Kd [4, 9]: 152 nM; Kd [5, 9]: 105 nM
29 | EISSNDNAK | 16800 nM | 443 nM | ≥ 55600 nM | 9600 nM | 31 nM | –
30 | VTSLAIKNYY | 206 nM | 21.7 nM | 281 nM | 420 nM | 112 nM | –
31 | ANKQYIHCFR | – | – | – | – | – | Kd [1, 12]: 17800 nM; Kd [2, 12]: ≥ 46600 nM; Kd [3, 12]: 12.8 nM; Kd [4, 12]: 130 nM; Kd [5, 12]: 9810 nM
32 | LLLPSTDVNK | 41.1 nM | 37.8 nM | 3020 nM | ≥ 70000 nM | 2920 nM | –
33 | LTMQRLLANH | – | – | – | – | – | Kd [1, 13]: 876 nM; Kd [2, 13]: 1850 nM; Kd [3, 13]: 1860 nM; Kd [4, 13]: 8440 nM; Kd [5, 13]: 1610 nM
34 | SVTLDFTKFH | – | – | – | – | – | Kd [1, 14]: 7520 nM; Kd [2, 14]: 7100 nM; Kd [3, 14]: 10100 nM; Kd [4, 14]: 9440 nM; Kd [5, 14]: 18400 nM
